Results on 1 substance are retold here after PMC5027278.

The target in this test is EphA2 (co-transfected with Anks1a constructs) (UniProt P29317). Nature of the test: not stated; interaction in co-transfected cells, quantified against WT Anks1a (Supplementary Fig. 5f,g).
UniProt P29317, sequence (P29317 24-976): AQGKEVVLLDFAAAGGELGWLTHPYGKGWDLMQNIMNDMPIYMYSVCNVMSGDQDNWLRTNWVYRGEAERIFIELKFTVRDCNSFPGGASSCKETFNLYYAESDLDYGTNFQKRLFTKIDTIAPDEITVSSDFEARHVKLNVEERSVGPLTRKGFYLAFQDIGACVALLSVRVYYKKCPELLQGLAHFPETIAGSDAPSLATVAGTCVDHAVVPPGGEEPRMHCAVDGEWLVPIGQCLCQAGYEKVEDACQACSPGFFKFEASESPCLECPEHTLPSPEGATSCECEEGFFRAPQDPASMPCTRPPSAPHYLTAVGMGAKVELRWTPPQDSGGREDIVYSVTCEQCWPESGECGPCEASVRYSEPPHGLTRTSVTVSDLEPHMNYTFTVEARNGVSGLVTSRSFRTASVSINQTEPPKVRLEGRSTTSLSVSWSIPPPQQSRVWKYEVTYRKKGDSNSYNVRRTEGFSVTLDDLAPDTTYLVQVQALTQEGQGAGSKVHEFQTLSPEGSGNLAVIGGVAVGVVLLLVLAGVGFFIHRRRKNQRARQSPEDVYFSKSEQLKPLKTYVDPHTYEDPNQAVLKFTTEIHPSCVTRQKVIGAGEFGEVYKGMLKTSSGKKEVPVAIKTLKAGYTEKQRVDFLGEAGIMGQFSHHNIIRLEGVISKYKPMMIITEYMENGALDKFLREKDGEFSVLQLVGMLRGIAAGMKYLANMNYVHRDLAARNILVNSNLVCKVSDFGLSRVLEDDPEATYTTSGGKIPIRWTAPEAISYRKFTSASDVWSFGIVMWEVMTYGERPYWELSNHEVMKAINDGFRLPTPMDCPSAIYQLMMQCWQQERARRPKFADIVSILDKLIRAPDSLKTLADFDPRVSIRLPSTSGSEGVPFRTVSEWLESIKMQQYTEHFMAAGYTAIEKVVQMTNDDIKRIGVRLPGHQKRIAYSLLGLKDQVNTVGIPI

On to “Anks1a-S647A/S663A double mutant (Ser DM) (natural protein)”, for which the binding relative to WT Anks1a is 50%.
